Test [1] has as its target SARS-COV-2 spike protein on virus-like particles (VLPs) (SARS-COV-2) (UniProt P0DTC2). Put plainly: cell-based or functional assay.
Test [2] deals with wild type SARS-COV-2 spike receptor binding domain (RBD), 6His-Strep-TEV-RBD construct, refolded from E. coli (SARS-COV-2) (UniProt P0DTC2).

For “LCB3 de novo designed miniprotein (from Cao et al., synthesised through recombinant expression in E. coli) (designed binder)”, the reduction in FITC signal (VLP binding to A549 cells) in test [1] stood at 84%. In test [2], this substance returned an equilibrium dissociation constant (Kd) of 926 nM and a Response Amplitude of 73.5.

What is called Kd is the free concentration of one partner at which half of the binding sites on the other are occupied at equilibrium, for simple one-to-one binding.

The values above are taken from patent US20250223336A1.
